Experimental data reported in article PMC6391071, “Mechanisms of opening and closing of the bacterial replicative helicase” (eLife, 2018).
“And” between values parts separate entries of the source, which are not always exact repeats. Equal entries are not always repeated.

B1: Aquifex aeolicus DnaB helicase (enzyme)
chain: LPCDESAERAVLGSMLEDPENIPLVLEYLKEEDFCIDEHKLLFRVLTNLWSEYGNKLDFVLIKDHLEKKNLLQKIPIDWLEELYEEAVSPDTLEEVCKIVKQRSAQRAIIQLGIELIHKGKENKDFHTLIEEAQSRIFSIAESATSTQFYHVKDVAEEVIELIYKFKSSDRLVTGLPSGFTELDLKTTGFHPGDLIILAARPGMGKTAFMLSIIYNLAKDEGKPSAVFSLEMSKEQLVMRLLSMMSEVPLFKIRSGSISNEDLKKLEASAIELAKYDIYLDDTPALTTTDLRIRARKLRKEKEVEFVAVDYLQLLRPPVRKSSRQEEVAEVSRNLKALAKELHIPVMALAQLSREVEKRSDKRPQLADLRESGQIEQDADLILFLHRPEYYKKKPNPEEQGIAEVIIAKQRQGPTDIVKLAFIKEYTKFANLEA
notes: Aquifex aeolicus DnaB replicative helicase; also called AA DnaB; A. aeolicus DnaB; source: E. coli Rosetta (pET24a-AA-DnaB); cells co-lysed with cells expressing AA DnaC; purified as the BC complex (65°C step, heparin sepharose, Q-sepharose, Superdex-200)
B2: Aquifex aeolicus DnaC helicase loader (natural protein, UniProt O67056 1-235, looked up)
chain: MQDTATCSICQGTGFVKTEDNKVRLCECRFKKRDVNRELNIPKRYWNANLDTYHPKNVSQNRALLTIRVFVHNFNPEEGKGLTFVGSPGVGKTHLAVATLKAIYEKKGIRGYFFDTKDLIFRLKHLMDEGKDTKFLKTVLNSPVLVLDDLGSERLSDWQRELISYIITYRYNNLKSTIITTNYSLQREEESSVRISADLASRLGENVVSKIYEMNELLVIKGSDLRKSKKLSTPS
notes: Aquifex aeolicus DnaC helicase loader; Six copies stand in the complex with the DnaB hexamer; also called AA DnaC; A. aeolicus DnaC; source: E. coli Rosetta (pET24a-AA-DnaC); cells co-lysed with cells expressing AA DnaB; purified as the BC complex (65°C step, heparin sepharose, Q-sepharose, Superdex-200)
B3: bacteriophage λP helicase loader (natural protein, UniProt P03689 1-233, looked up)
chain: MKNIAAQMVNFDREQMRRIANNMPEQYDEKPQVQQVAQIINGVFSQLLATFPASLANRDQNEVNEIRRQWVLAFRENGITTMEQVNAGMRVARRQNRPFLPSPGQFVAWCREEASVTAGLPNVSELVDMVYEYCRKRGLYPDAESYPWKSNAHYWLVTNLYQNMRANALTDAELRRKAADELVHMTARINRGEAIPEPVKQLPVMGGRPLNRAQALAKIAEIKAKFGLKGASV
notes: bacteriophage λ replication protein P (helicase loader), full length, 233 residues, 26,518 Da, untagged; Five copies stand in the predominant complex with the DnaB hexamer; The 6BBM model of λP has no side chains and covers about residues 109-233; also called lambdaP; LP; source: E. coli BL21(DE3), co-expressed with DnaB (pCDFDuet-λP); purified as the BP complex (ammonium sulfate, Q-sepharose, …)

How the values were obtained:
[1] = target: T1, DnaB replicative helicase;lambda P helicase loader (Escherichia coli;bacteriophage lambda, UniProt P0ACB0;P03689 1-471;1-233, |); assay: native MS; B6P5 with one ssDNA, 459.5 kDa; no nucleotide bound; 450 mM ammonium acetate pH 7.5, 0.5 mM magnesium acetate, 0.01% Tween-20; 5 uM protein, protein:ssDNA 1:1.2, 30 min on ice; details: protein: recombinant;recombinant; tags: untagged;; chain copies: 6;5; single strand
[2] = target: T1, DnaB replicative helicase;lambda P …; assay: native MS; no protein-DNA complex; 450 mM ammonium acetate pH 7.5, 0.5 mM magnesium acetate, 0.01% Tween-20; 5 uM protein, protein:ssDNA 1:1.2, 30 min on ice; details: protein: recombinant;recombinant; tags: untagged;; chain copies: 6;5; single strand
[3] = target: the molecule itself; assay: native MS; co-purified complex at 5 µM, buffer-exchanged into 450 mM ammonium acetate pH 7.5, 0.5 mM magnesium acetate, 0.01% Tween-20; no ssDNA
[4] = target: B1; assay: as above; details: both partners purified
[5] = target: T2, Escherichia coli DnaB helicase (Escherichia coli, UniProt P0ACB0 1-471); assay: native MS; BP sample in 500 mM ammonium acetate, 0.01% Tween-20, without magnesium acetate; details: both partners purified
T2 construct: E. coli DnaB replicative helicase, full length, untagged; Hexamer; The 6BBM model holds residues 17-471 at most; chain A lacks 167-203; also called EcDnaB; E. coli DnaB; source: E. coli BL21(DE3), co-expressed with λP (pET24-DnaB-EC); purified as the BP complex (ammonium sulfate, Q-sepharose, heparin sepharose, methyl HIC)

[6] = target: T2, Escherichia coli DnaB helicase; assay: native MS; co-purified complex at 5 µM, buffer-exchanged into 450 mM ammonium acetate pH 7.5, 0.5 mM magnesium acetate, 0.01% Tween-20; no ssDNA; details: both partners purified
[7] = target: T2, Escherichia coli DnaB helicase; assay: native MS; BP complex at 5 µM in 450 mM ammonium acetate pH 7.5, 0.5 mM magnesium acetate, 0.01% Tween-20; incubated with the Oriλ-derived 43-mer ssDNA at 1:1.2 for 30 min on ice; details: both partners purified

T1 sequence (P0ACB0 whole entry, one chain of several): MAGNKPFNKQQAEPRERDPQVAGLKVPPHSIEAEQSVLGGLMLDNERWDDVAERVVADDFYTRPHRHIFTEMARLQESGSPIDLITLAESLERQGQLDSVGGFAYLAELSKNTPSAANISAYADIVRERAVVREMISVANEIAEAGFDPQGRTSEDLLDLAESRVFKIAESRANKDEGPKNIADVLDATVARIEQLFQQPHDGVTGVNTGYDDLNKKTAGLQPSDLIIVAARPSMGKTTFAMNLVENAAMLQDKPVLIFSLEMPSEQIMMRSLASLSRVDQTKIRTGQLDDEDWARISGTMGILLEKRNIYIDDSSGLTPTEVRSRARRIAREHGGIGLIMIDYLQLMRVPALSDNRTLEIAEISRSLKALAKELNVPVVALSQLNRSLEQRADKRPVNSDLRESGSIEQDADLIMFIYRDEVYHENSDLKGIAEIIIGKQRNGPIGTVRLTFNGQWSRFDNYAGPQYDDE
T2 sequence (P0ACB0 whole entry, the tested form may be a part): as the sequence (P0ACB0 whole entry, one chain of several) above

TGACGAATAATCTTTTCTTTTTTCTTTTGTAATAGTGTCTTTT (ssDNA) [ori-lambda DUE 43-mer]: binds [1].

TTTTTTTTTTTTTTTTTTTTTTTTTTTTTTTTTTT (ssDNA) [T35]: no binding [2].

TTTTTTTTTTTTTTTTTTTTTTTTT (ssDNA) [T25]: no binding [2].

With B1 the “stoichiometry N” value [3] was 6 subunits.

B2 was tested, and the “stoichiometry N” value [4] was 6 DnaC per DnaB hexamer.

B3 was tested, and the “stoichiometry N” value [5] was 5 λP per DnaB hexamer and 6 λP per DnaB hexamer and 4 λP per DnaB hexamer, the “stoichiometry N” value [6] was 5 λP per DnaB hexamer and 6 λP per DnaB hexamer and 4 λP per DnaB hexamer and the “stoichiometry N” value [7] was 5 λP per DnaB hexamer.

TTTTTTTTTTTTTTTTTTTTTTTTTTTTTTTTTTTTTTTTTTTTT (ssDNA) [T45]: no binding [2].
